In patent US20230374148A1, “BINDING MOLECULES THAT MULTIMERISE CD45” (UCB BIOPHARMA SRL, priority 2020, published 2023):
“And” between values parts separate entries of the source, which are not always exact repeats. Equal values may be shown once.

Tests used:
Format in all cases: cell-based
[1] = tested on: NU-DUL-1; experiment: Apoptosis of cell lines: NU-DUL-1; details: NU-DUL-1, 21 hrs
Text: (§1) The following cell lines representing various leukaemia's and lymphoma's, as classified by ATCC (www.atcc.org/), were used: Jurkat—acute T-cell leukaemia; CCRF-SB—B-cell acute lymphoblastic leukaemia; MC116—B-cell undifferentiated lymphoma; Raji, Ramos—Burkitt lymphoma (rare form of B-cell non-Hodgkin lymphoma); SU-DHL-4, SU-DHL-5, SU-DHL-8, NU-DUL-1, OCI-Ly3—Diffuse large B-cell lymphoma; THP-1—acute monocytic leukaemia; and Dakiki—B cell nasopharyngeal carcinoma.
(§2) Prior to an assay being performed, 1 vial of each of the above cell lines was thawed in a 37° C. water bath and then added to 20 ml complete media (RPMI 1640+2 mM GlutaMAX+1% Pen/Strep, all previous supplied by Invitrogen, +10% Fetal Bovine Serum (FBS), Sigma Aldrich). Cells were spun (500 g, 5 min, at RT) and re-suspended in 20 ml complete media to wash and spun again. Cells were resuspended in 10 ml complete media and then counted using a ChemoMetec NucleoCounter NC-3000. 6×10^6 cells of each cell line were spun (500 g, 5 min, at RT) and re-suspended in 4.8 ml complete media. 1×10^5 cells in 80 μl were then added to each well of a Corning Costar 96-well, cell culture treated, U-shaped-bottom microplate (cat no. 07-200-95). The plate was rested in a 37° C., 5% CO2 incubator for 2 hrs
(§3) Stocks of 4133-6294 BYbe and NegCtrl BYbe at 2500 nM in complete media were prepared. In a Greiner 96-well non-binding microplate, both reagents were serially diluted in complete media 1 in 5, seven times to produce to form an 8-point dose curve. […] (final well concentrations 500-0.0064 nM) was added to the cells. Each concentration was produced in triplicate. Camptothecin (cat no. C9911-100MG, Sigma Aldrich) and Staurosporine (cat no. 56942-200UL, Sigma Aldrich) were added as positive controls of apoptosis. Both were diluted in complete media and added to the well to produce a final concentration of 5 μM. Additional positive controls included anti-thymocyte globulin (ATG, indicated by FDA for use in conditioning regimens), Rituximab (anti-CD20, indicated by FDA for Non-Hodgkin Lymphoma and Chronic Lymphocytic Leukaemia) and Campath (anti-CD52, indicated by FDA for B-cell Chronic Lymphocytic Leukaemia). Anti-thymocyte globulin, Rituximab and Campath were added to the wells to produce final concentrations of 200 μg/ml, 500 nM and 200 μg/ml, respectively. […]
(§4) Following the incubation, the plates were spun at 500 g, 5 min, RT, the buffer was aspirated with a BioTek ELx405 microplate washer, and the cells were re-suspended in FACS buffer (PBS+1% bovine serum albumin (BSA)+0.1% NaN3+2 mM EDTA, Sigma Aldrich) to wash and then re-spun and buffer was aspirated to leave the cells in 20 μl residual media. […] Cells were analysed using the Bio-Rad ZE5 Cell Analyzer. […]

[2] = tested on: Human whole blood; experiment: Cytokine release in whole blood at 24 hrs, Luminex bead assay
Method: Human whole blood (Lithium heparin tubes) was taken from two donors (HTA #300120-1 & #300120-2) at UCB Pharma Slough, UK according to approved ethical sample collection protocol.
In a Greiner 96-well non-binding microplate, stocks of 4133-6294 BYbe and negative control BYbe (NegCtrl BYbe), with antigen-irrelevant specificity in both the Fab and scFv positions, were prepared in PBS at 5000 nM. The BYbe reagents were then serially diluted in PBS 1 in 5, three times to produce to form a 4-point dose curve. 12.5 μl of BYbe dilution was transferred into Corning Costar 96-well, cell culture treated, U-shaped-bottom microplate (cat no. 07-200-95) and 237.5 μl of whole blood added to each well. Final well concentrations of BYbes were 250 nm, 50 nM, 10 nm and 2 nM. Campath (clinical grade, diluted from 30 mg/ml stock to 1 mg/ml in PBS, lot number F1002H29) was used as a positive control at a final concentration of 10 μg/ml. Plates were sealed with a gas permeable adhesive seal and plate lids were replaced. Plates were then incubated for 24 hrs at 37° C. and 5% humidified CO2 in an undisturbed location.
Cytokine release was then assessed using a R&D Systems Luminex 13-plex human cytokine assay (custom selection of cytokines as follows; IL-1 RA, IL-4, IL-5, IL-6, IL-10, IL-11, IL-13, CCL2, IL-8, CXCL1, CX3CL1, GM-CSF and M-CSF). Following the 24-hour incubation, plates were spun at 1000 g for 10 mins and 50 μl of plasma was transferred to a separate plate containing 50 μl of assay diluent buffer (RD6-52 from the Luminex kit). Samples were resuspended thoroughly using a multichannel pipette and 50 μl transferred to the Luminex assay plate. Luminex assay standards were diluted 1 in 2, seven times to construct standard curves and added to the plate. 50 μl of microparticle mixture was then added to each well and plates incubated for 2 hrs at room temperature (RT) and mixed at 800 rpm. Plates were washed 3 times by adding 150 μl of wash buffer to each well then allowing the magnetic beads to bind to a BioTek ELx405 microplate washer magnet before supernatant was aspirated. 50 μl of biotin-antibody cocktail was added to each well at plates incubated for 1 hr at RT with shaking. Plates were then washed as before and a final addition of 50 μl of streptavidin-PE added to each well. Plates were incubated for 30 mins at RT with shaking before a final wash step and addition of 50 μl of wash buffer to each well. The Luminex assay plate was run using the iQUEplus flow cytometer (Sartorius). Standard curves were generated (using provided assay controls) and extrapolated cytokine values generated using Forecyt software (Sartorius). Data was then transferred to Graphpad Prism version 8.1 (Graphpad) to generate data visualisations.

[3] = tested on: OCI-Ly3; experiment: Apoptosis of cell lines: OCI-Ly3; details: OCI-Ly3, 21 hrs
Text: as §1, §2, §3, §4

[4] = Campath 10 μg/ml, donor #300120-1

| Molecule | Campath mean (%) cell reduction ([1]; 200 μg/ml) | IL-6 level induced ([2]; Campath 10 μg/ml, above PBS-treated wells) | CCL2 level induced [2, 4] | IL-1 RA level induced [2, 4] | IL-8 level induced [2, 4] | Campath mean (%) cell reduction ([3]; 200 μg/ml) | Bottom (%) level of % cell reduction [1] | Top (%) level of % cell reduction [1] | induction of inflammatory cytokines ([2]; 250-2 nM, compared with PBS- and NegCtrl BYbe-treated wells) | Bottom (%) level of % cell reduction [3] | Top (%) level of % cell reduction [3] |
| --- | --- | --- | --- | --- | --- | --- | --- | --- | --- | --- | --- |
| Campath: anti-CD52, clinical grade, indicated by FDA for B-cell Chronic Lymphocytic Leukaemia; positive control [reference compound] | 67.49% | marked levels | exceeded the standard curve | exceeded the standard curve | exceeded the standard curve | 6.72% | – | – | – | – | – |
| 4133-6294 BYbe: anti-CD45 BYbe (Fab-scFv): 4133 Fab HC-G4S linker-6294 scFv heavy chain paired with 4133 light chain (antibody) heavy: QEQLVESGGGLVQPEGSLTLTCTASGFSFSGNYYMCWVRQAPGKGLEWIGCLYTGSSGSTYYASWAKGRFTISKTSSTTVTLQMTSLTAADTATYFCARDLGYEIDGYGGLWGQGTLVTVSSGQPKAPSVFPLAPCCGDTPSSTVTLGCLVKGYLPEPVTVTWNSGTLTNGVRTFPSVRQSSGLYSLSSVVSVTSSSQPVTCNVAHPATNTKVDKTVAPSTCSKPGGGGSGGGGSEVQLVESGAELARPGASVKMSCKASGYTFTSYTMHWVKQRPGQCLEWIGYINPSSGYTEYNQKFKDKTTLTADKSSSTAYLQLSSLTSEDSAVYYCARVGDGFYPSWLAYWGQGTLVTVSSGGGGSGGGGSGGGGSGGGGSDIQMTQSPKFLLVSAGDRVTITCKASQSVRNDVAWYQQKPGQSPKLLIFYASKRYTGVPDRFTGSGYGTDFTFTISTVQAEDLAVYFCQQDYSSPTTFGCGTKLEIK light: AQVLTQTPSPVSAVVGGTVSISCQASQSVYNNNNLSWYQQKPGQPPKLLIYDASKLASGVPSRFKGSGSGTQFTLTISGVQCDDAATYYCLGGYYSSGWYFAFGGGTKVVVKRTPVAPTVLIFPPAADQVATGTVTIVCVANKYFPDVTVTWEVDGTTQTTGIENSKTPQNSADCTYNLSSTLTLTSTQYNSHKEYTCKVTQGTTSVVQSFNRGDC | – | – | – | – | – | – | 5.07% | 44.87% | little or no induction | 10.54% | 39.84% and 39.94% |
